The text below walks through data of patent publication US20260242731A1.

In assay [1] the target is CD19.1-Fc (Human). Nature of the assay: on-bead ELISA, HRP-conjugated FMC63 titrated on CD19.1 Fc coated beads, absorbance at 450 nm, four-parameter logistic fit.
Assay [2] deals with CD19.1-His (Human) (UniProt P15391). Nature of the assay: on-bead ELISA, HRP-conjugated FMC63 titrated on CD19.1 His coated beads, absorbance at 450 nm, four-parameter logistic fit.
The target is the same in assay [3]. Kind of assay: on-bead fluorescence binding capacity assay; beads CD19.1-His (5.0 x moles).
Assay [4] shares this target. Nature of the assay: on-bead fluorescence binding capacity assay; beads CD19.1-His (2.0 x moles).
The target of assay [5] is CD19.1-Fc (Human). Kind of assay: on-bead fluorescence binding capacity assay; CD19.1-Fc coated beads.
In assay [6] the target is CD19.1-His (Human) (UniProt P15391). Nature of the assay: on-bead fluorescence binding capacity assay; beads CD19.1-His (0.5 x moles).
Assay [7] has as its target CD19.1-Fc (Human). Kind of assay: on-bead fluorescence binding capacity assay; beads CD19.1-Fc (1.0 x moles).
The target of assay [8] is custom-produced WT etCD19-Fc (Human; human) (UniProt P15391). Kind of assay: on-bead fluorescence binding capacity assay; wtCD19 Fc coated beads.
Assay [9] deals with CD19.1-Fc (Human). Nature of the assay: on-bead anti-CD19-FITC (FMC63) binding assay.
Assay [10] addresses CD19.1-His (Human) (UniProt P15391). Kind of assay: on-bead fluorescence binding capacity assay; beads CD19.1-His (1.0 x moles).
Assay [11] concerns the target CD19.1-Fc (Human). Kind of assay: direct ELISA, CD19 variant coated on plate (2D), FMC63-HRP titrated, OD450nm.
Assay [12] has as its target CD19.1-Fc (Human). Nature of the assay: on-bead fluorescence binding capacity assay; beads CD19.1-Fc (2.0 x moles).
Assay [13] addresses CD19.1-Fc (Human). Nature of the assay: on-bead fluorescence binding capacity assay; beads CD19.1-Fc (5.0 x moles).
Assay [14] addresses CD19.1-Fc (Human). Kind of assay: on-bead fluorescence binding capacity assay; beads CD19.1-Fc (0.5 x moles).
Assay [15] concerns the target WT etCD19-His (Acrobiosystems) (Human) (UniProt P15391). Nature of the assay: on-bead ELISA, HRP-conjugated FMC63 titrated on wtCD19 His coated beads, absorbance at 450 nm, four-parameter logistic fit. For orientation: ELISA stands for enzyme-linked immunosorbent assay.
The target of assay [16] is FMC63-scFv-41BBz CAR on Jurkat-Lucia NFAT cells. Nature of the assay: cell-based or functional assay.
Assay [17] concerns the target CD19 antibody FMC63. Kind of assay: biolayer interferometry, FMC63 immobilized. (In general: In BLI a coated tip is dipped into the sample, and binding shifts an interference pattern.)
Assay [18] addresses FMC63-derived anti-CD19 28z CAR on primary T cells. Kind of assay: flow cytometry, FITC-labeled protein titrated on anti-CD19 28z CAR primary T cells, four-parameter fit. A general note: A flow cytometer gives signals particle by particle.
Assay [19] addresses CD19 antibody FMC63. Kind of assay: biolayer interferometry, FMC63 immobilized; stronger non-specific binding noted.

What is called EC50 is the concentration needed to bring the measured effect to its halfway point. Read a low EC50 as a more potent agent. One may read the EC50 (read off the curve) as the concentration needed to bring the measured effect to its halfway point. The Kd is the free concentration of one partner at which half of the binding sites on the other are occupied at equilibrium, for simple one-to-one binding.

On to CD19 antibody FMC63, for which the EC50 was 0.59 nM in assay [1], 0.36 nM in assay [2] and 0.68 nM in assay [15]. Besides, the % of CD19.1 molecules bound by anti-CD19-FITC turned out to be 2.17% in [3]; 1.66% in [4]; 0.8% in assay [6]; 0.87% in assay [7]; 0.76% in assay [10]; 1.21% in assay [12]. Further, the % of CD19.1 molecules bound by anti-CD19-FITC in assay [13] was 1.86%; in assay [14], 0.7%. The Moles of antibody per mg of beads (mol per mg of beads) is 2e-12 in assay [3]; 1.14e-12 in assay [4]; 4.6e-13 in assay [5]; 4.9e-13 in assay [6]; 4.1e-13 in assay [7]; 1.3e-13 in assay [8]. Further, the Moles of antibody per mg of beads (mol per mg of beads) in assay [10] was 5.1e-13; in [12], 6e-13; in [13] it was 1e-12; in assay [14] it was 2.8e-13. The Percentage of CD19.1 or wt CD19 Fc molecules bound by anti-CD19-FITC (FMC63) in assay [5] is 1.36%; in [8] it was 0.37%. For the same substance, the fold binding capacity (functional antigen density) against wtCD19 coated beads (times higher than wtCD19 coated beads) in assay [9] stood at 3.5. The same substance showed an EC50 (read off the curve) in [11] of 4 ng/mL.

The substance “CD19.1 (immobilized on plates or coated on beads; tagged version not stated) (from UniProt P15391 20-291)” had a maximum stimulation against TransAct at 1:100 dilution (fold stronger than TransAct) in [16] of 3.4.

With CD19.1-Fc (Fc fusion), in assay [17], the Kd worked out at 0.103 nM. For the same substance, the concentration giving a half-maximal response (EC50) in [18] turned out to be 1.9 nM.

The substance CD19.1-His (from UniProt P15391 20-291) gave a Kd in assay [17] of 3.18 nM. In [18], this substance registered an EC50 of 15.8 nM.

In [19], “WT etCD19-His (Acrobiosystems) (from UniProt P15391 20-291)” displayed a Kd of 7.18 nM.

In the case of “purchased WT etCD19-His (from UniProt P15391 20-291)”, the Kd in assay [19] worked out at 3.88 nM.
